Experiments:
HeLa Kyoto [1] = assay: solubility in G1/S (NP-40 vs SDS abundance) (log2 ratio); higher = more soluble; details: cell cycle stage: G1/S
HeLa Kyoto [2] = assay: melting temperature (median over replicates), in situ; higher = more thermally stable
HeLa Kyoto [3] = assay: solubility change mitosis vs G1/S (difference of NP-40 vs SDS log2 ratios) (log2 ratio difference); higher = more soluble in mitosis
HeLa Kyoto [4] = assay: thermal stability score vs G1/S (z-score of summed log2 fold changes over temperatures); higher = more thermally stable than in G1/S
[5] = cell cycle stage: early G1 (4.5 h after nocodazole release)
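Wherever melting temperature (median over replicates), in situ is given: HeLa Kyoto cells synchronized by double thymidine or nocodazole block, proteins quantified by TMT10plex mass spectrometry, three independent biological replicates.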
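Wherever solubility change mitosis vs G1/S (difference of NP-40 vs SDS log2 ratios) is given: synchronized HeLa Kyoto cells (double thymidine block for G1/S, nocodazole release for mitosis), protein amounts in NP-40 versus SDS lysates quantified by mass spectrometry, three biological replicates.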
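Wherever solubility in G1/S (NP-40 vs SDS abundance) is given: HeLa Kyoto cells arrested at G1/S by double thymidine block, proteins quantified by TMT10plex mass spectrometry in mild NP-40 versus SDS extracts, three biological replicates.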
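Wherever thermal stability score vs G1/S (z-score of summed log2 fold changes over temperatures) is given: synchronized HeLa Kyoto cells, proteins quantified by TMT10plex mass spectrometry, three biological replicates, mitosis taken 0.5 h after nocodazole release, G1/S directly after double thymidine block.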

MASILDEYENSLSRSAVLQPGCPSVGIPHSGYVNAQLEKEVPIFTKQRIDFTPSERITSLVVSSNQLCMSLGKDTLLRIDLGKANEPNHVELGRKDDAKVHKMFLDHTGSHLLIALSSTEVLYVNRNGQKVRPLARWKGQLVESVGWNKALGTESSTGPILVGTAQGHIFEAELSASEGGLFGPAPDLYFRPLYVLNEEGGPAPVCSLEAERGPDGRSFVIATTRQRLFQFIGRAAEGAEAQGFSGLFAAYTDHPPPFREFPSNLGYSELAFYTPKLRSAPRAFAWMMGDGVLYGALDCGRPDSLLSEERVWEYPEGVGPGASPPLAIVLTQFHFLLLLADRVEAVCTLTGQVVLRDHFLEKFGPLKHMVKDSSTGQLWAYTERAVFRYHVQREARDVWRTYLDMNRFDLAKEYCRERPDCLDTVLAREADFCFRQRRYLESARCYALTQSYFEEIALKFLEARQEEALAEFLQRKLASLKPAERTQATLLTTWLTELYLSRLGALQGDPEALTLYRETKECFRTFLSSPRHKEWLFASRASIHELLASHGDTEHMVYFAVIMQDYERVVAYHCQHEAYEEALAVLARHRDPQLFYKFSPILIRHIPRQLVDAWIEMGSRLDARQLIPALVNYSQGGEVQQVSQAIRYMEFCVNVLGETEQAIHNYLLSLYARGRPDSLLAYLEQAGASPHRVHYDLKYALRLCAEHGHHRACVHVYKVLELYEEAVDLALQVDVDLAKQCADLPEEDEELRKKLWLKIARHVVQEEEDVQTAMACLASCPLLKIEDVLPFFPDFVTIDHFKEAICSSLKAYNHHIQELQREMEEATASAQRIRRDLQELRGRYGTVEPQDKCATCDFPLLNRPFYLFLCGHMFHADCLLQAVRPGLPAYKQARLEELQRKLGAAPPPAKGSARAKEAEGGAATAGPSREQLKADLDELVAAECVYCGELMIRSIDRPFIDPQRYEEEQLSWL [VPS18]
solubility in G1/S (log2) (HeLa Kyoto [1]): -0.115
melting temperature (HeLa Kyoto [2]; cell cycle stage: G1/S): 50.1 °C
melting temperature (HeLa Kyoto [2]; cell cycle stage: mitosis): 49.5 °C
solubility change mitosis (log2) (HeLa Kyoto [3]): -0.0584
thermal stability score (HeLa Kyoto [4]; [5]): 0.54
thermal stability score (HeLa Kyoto [4]; cell cycle stage: mitosis): 1.02

MASILLRSCRGRAPARLPPPPRYTVPRGSPGDPAHLSCASTLGLRNCLNVPFGCCTPIHPVYTSSRGDHLGCWALRPECLRIVSRAPWTSTSVGFVAVGPQCLPVRGWHSSRPVRDDSVVEKSLKSLKDKNKKLEEGGPVYSPPAEVVVKKSLGQRVLDELKHYYHGFRLLWIDTKIAARMLWRILNGHSLTRRERRQFLRICADLFRLVPFLVFVVVPFMEFLLPVAVKLFPNMLPSTFETQSLKEERLKKELRVKLELAKFLQDTIEEMALKNKAAKGSATKDFSVFFQKIRETGERPSNEEIMRFSKLFEDELTLDNLTRPQLVALCKLLELQSIGTNNFLRFQLTMRLRSIKADDKLIAEEGVDSLNVKELQAACRARGMRALGVTEDRLRGQLKQWLDLHLHQEIPTSLLILSRAMYLPDTLSPADQLKSTLQTLPEIVAKEAQVKVAEVEGEQVDNKAKLEATLQEEAAIQQEHREKELQKRSEVAKDFEPERVVAAPQRPGTEPQPEMPDTVLQSETLKDTAPVLEGLKEEEITKEEIDILSDACSKLQEQKKSLTKEKEELELLKEDVQDYSEDLQEIKKELSKTGEEKYVEESKASKRLTKRVQQMIGQIDGLISQLEMDQQAGKLAPANGMPTGENVISVAELINAMKQVKHIPESKLTSLAAALDENKDGKVNIDDLVKVIELVDKEDVHISTSQVAEIVATLEKEEKVEEKEKAKEKAEKEVAEVKS [LETM1]
solubility in G1/S (log2) (HeLa Kyoto [1]): 0.088
melting temperature (HeLa Kyoto [2]; cell cycle stage: G1/S): 52.9 °C
melting temperature (HeLa Kyoto [2]; cell cycle stage: mitosis): 52.3 °C
solubility change mitosis (log2) (HeLa Kyoto [3]): -0.0749
thermal stability score (HeLa Kyoto [4]; [5]): -0.277
thermal stability score (HeLa Kyoto [4]; cell cycle stage: mitosis): -1.56

MASIWVGHRGTVRDYPDFSPSVDAEAIQKAIRGIGTDEKMLISILTERSNAQRQLIVKEYQAAYGKELKDDLKGDLSGHFEHLMVALVTPPAVFDAKQLKKSMKGAGTNEDALIEILTTRTSRQMKDISQAYYTVYKKSLGDDISSETSGDFRKALLTLADGRRDESLKVDEHLAKQDAQILYKAGENRWGTDEDKFTEILCLRSFPQLKLTFDEYRNISQKDIVDSIKGELSGHFEDLLLAIVNCVRNTPAFLAERLHRALKGIGTDEFTLNRIMVSRSEIDLLDIRTEFKKHYGYSLYSAIKSDTSGDYEITLLKICGGDD [ANXA3]
solubility in G1/S (log2) (HeLa Kyoto [1]): 0.2
melting temperature (HeLa Kyoto [2]; cell cycle stage: G1/S): 52.3 °C
melting temperature (HeLa Kyoto [2]; cell cycle stage: mitosis): 52.2 °C
solubility change mitosis (log2) (HeLa Kyoto [3]): -0.0404
thermal stability score (HeLa Kyoto [4]; [5]): -0.635
thermal stability score (HeLa Kyoto [4]; cell cycle stage: mitosis): -1.21

MASKEMFEDTVEERVINEEYKIWKKNTPFLYDLVMTHALQWPSLTVQWLPEVTKPEGKDYALHWLVLGTHTSDEQNHLVVARVHIPNDDAQFDASHCDSDKGEFGGFGSVTGKIECEIKINHEGEVNRARYMPQNPHIIATKTPSSDVLVFDYTKHPAKPDPSGECNPDLRLRGHQKEGYGLSWNSNLSGHLLSASDDHTVCLWDINAGPKEGKIVDAKAIFTGHSAVVEDVAWHLLHESLFGSVADDQKLMIWDTRSNTTSKPSHLVDAHTAEVNCLSFNPYSEFILATGSADKTVALWDLRNLKLKLHTFESHKDEIFQVHWSPHNETILASSGTDRRLNVWDLSKIGEEQSAEDAEDGPPELLFIHGGHTAKISDFSWNPNEPWVICSVSEDNIMQIWQMAENIYNDEESDVTTSELEGQGS [RBBP7]
solubility in G1/S (log2) (HeLa Kyoto [1]): 0.0292
melting temperature (HeLa Kyoto [2]; cell cycle stage: G1/S): 53 °C
melting temperature (HeLa Kyoto [2]; cell cycle stage: mitosis): 53.3 °C
solubility change mitosis (log2) (HeLa Kyoto [3]): -0.157
thermal stability score (HeLa Kyoto [4]; [5]): -0.845
thermal stability score (HeLa Kyoto [4]; cell cycle stage: mitosis): -1.83

Reference: the supplement of paper PMC5998384
